What all share (test): phage ELISA, apparent Kd; PBS, 50 uM ZnCl2, 20 C
Conditions in all cases: protein: virion; tags: phage fd pIII fusion (Fd-Tet-SN), Zif268 framework; label: 5' biotin
On the technique in general: An ELISA detects its analyte on a solid surface through an enzyme-linked reagent.

The target of data set [1] is zfHAE(M). As to the method:
(§1) Binding sites are synthesised as described above, including biotinylated sites where 5-meC (M) is replaced by a C or T (with appropriate bases in the complementary strand). Two-fold dilutions of DNA are added to separate wells of a streptavidin-coated microtitre plate (Boehringer Mannheim) in 50 µl PBS containing 50 µM ZnCl_2 (PBS/Zn). Phage solution (bacterial culture supernatant diluted 1:10 in PBS/Zn containing 2% (w/v) fat-free dried milk (Marvel), 1% (v/v) Tween and 20 µg/ml sonicated salmon sperm DNA) are applied to each well (50 µl/well). Binding is allowed to proceed for one hour at 20° C. Unbound phage are removed by washing 6 times with PBS/Zn containing 1% (v/v) Tween, then 3 times with PBS/Zn. Bound phage are detected by ELISA using horseradish peroxidase-conjugated anti-M13 IgG (Pharmacia Biotech) and the colourimetric signal quantitated using SOFTMAX 2.32 (Molecular Devices).
(§2) Zinc finger phage binding for each of the above clones is titrated against different amounts of methylated and unmethylated DNA oligos to derive values of the apparent dissociation constants (K_ds) for either DNA binding site (see FIGS. 4 and 5). The apparent Kd of each clone for the optimally bound DNA site(s) is in the nanomolar range, similar to that of wild-type Zif268 DNA-binding domain for its preferred target site using this assay. Clones zfHAE(M) (Table 1 F1: SEQ ID NO.:20; F2: SEQ ID NO.:25; F3: SEQ ID NO.:30) and zfHHA(M) (Table 1 F1: SEQ ID NO.:21; F2: SEQ ID NO.:26; F3: SEQ ID NO.:31) preferentially bind their respective DNA target sites when 5-meC is incorporated into the correct nucleotide positions, and discriminated against the unmethylated DNA sites by factors of approximately 20-fold and 5-fold, respectively.

In a further data set the target is zfHAE(Y). As to the method:
as §1, §2

The target of another data set is zfHHA(M). As to the method:
as §1, §2

A further data set addresses zfHHA(Y). Here is the method:
as §1, §2

Data set [2] addresses zfHAE(M). As to the method:
as §1
The source holds these as a separate data set.

B1: HAE(M) G-GGMC-GGCG (dsDNA)
DNA 1: TATAGTGGGCCGGCGTGTCACAGTCAGTCCACACACGTC
DNA 2: GACGTGTGTGGACTGACTGTGACACGCCGGCCCACTATA
modifications: 5mC at M (G-GGMC-GGCG), both strands [10 (5mC)]
As for B1, the Kd in the data set with zfHAE(M) [1] worked out at 2 nM; with zfHAE(Y), 6.3 nM.

B2: HHA(M) G-GMGC-GGCG (dsDNA)
DNA 1: TATAGTGGCGCGGCGTGTCACAGTCAGTCCACACACGTC
DNA 2: GACGTGTGTGGACTGACTGTGACACGCCGCGCCACTATA
modifications: 5mC at M (G-GMGC-GGCG), both strands [5mC at 9 (top strand); bottom-strand 5mC opposite G10]
Regarding B2, the Kd with zfHHA(M) and in the data set with zfHHA(Y) was 14 nM in each case.

B3: HAE(T) G-GGTC-GGCG (dsDNA)
DNA 1: TATAGTGGGTCGGCGTGTCACAGTCAGTCCACACACGTC
DNA 2: GACGTGTGTGGACTGACTGTGACACGCCGACCCACTATA
In the case of B3, in the data set with zfHAE(M) [2], the Kd came to 27 nM.

For the origin of these results see patent US6977154, “Nucleic acid binding proteins” (Gendaq Limited).
